Results from the supplement of paper PMC10724198.
± gives the standard deviation of the averaged measurements.

System: Saccharomyces cerevisiae
Assay: protein stability index of tFT-peptide fusion (C-terminal peptide) (PSI (0-1 scale)); higher = more stable (slower turnover)
Conditions: genetic background: wild type; temperature: 30 C
Description: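 Multiplexed protein stability (MPS) profiling in S. cerevisiae. Random 12-aa peptides (tFT-X12 library) are fused to the C-terminus of a sfGFP-mCherry tandem fluorescent timer, after mCherry and a GGGS linker. Cells are FACS-sorted into 8 mCherry/sfGFP bins and deep-sequenced. The protein stability index (PSI) is the read-weighted bin average, scaled from 0 (unstable) to 1 (stable). Only peptides with >10 reads are reported; cells were grown at 30 °C in SC-His with glucose.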
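Also: PSI is a weighted mean of sequencing reads over stability bins, variants kept only with over 10 reads, mCherry proximal and sfGFP distal, peptide attached via GGGS linker.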

Sequence	protein stability index
GPSPLTMPGSPS	0.683 ± 0.064
GPSRKCPFDVVS	0.6654 ± 0.0021
GPTGPATQNDDS	0.671 ± 0.018
GPVLAVTRIVCK	0.552 ± 0.0096
GPYPPFSPPPLS	0.697 ± 0.072
GQGACWLCVGGR	0.685 ± 0.02
GQKKGRGGEREE	0.676 ± 0.03
GQLGGRGNRRVA	0.718 ± 0.041
GQQILGGRSLEG	0.63 ± 0.035
GQQVDKMLWDEV	0.715 ± 0.025
GQVAKVKVRKKK	0.755 ± 0.052
GRCFGGVVRGAL	0.655 ± 0.051
GRCVCVLFWHVS	0.571 ± 0.0078
GRDCSSHFIVPL	0.713 ± 0.029
GRDGQTLYLVLL	0.686 ± 0.03
GREGELDKKKWH	0.723 ± 0.051
GREGKEKKKPRR	0.696 ± 0.097
GREGKHLGAPPS	0.68 ± 0.032
GREGQGRGGQQG	0.629 ± 0.05
GRERGTEKGESG	0.631 ± 0.11
GRERMVVVSCGS	0.629 ± 0.043
GRGDNRKVDGEG	0.671 ± 0.061
GRGGGGGRDREA	0.703 ± 0.076
GRGGGRGVGVVG	0.6345 ± 0.0028
GRGGLGGGEWDR	0.711 ± 0.0028

Sequence	protein stability index
GRGGPSGAKAHR	0.684 ± 0.026
GRGGTYVVLWGV	0.661 ± 0.1
GRGKGNEREVRT	0.656 ± 0.022
GRGLGRVMRGRV	0.6182 ± 0.0059
GRGLSSLCRRFS	0.691 ± 0.044
GRGRDDKTYKKT	0.669 ± 0.031
GRGRGEVMNGRG	0.574 ± 0.0044
GRGRLLYWEKWL	0.66 ± 0.03
GRIRGCSPFPLW	0.63 ± 0.094
GRKCWDRSGWTV	0.771 ± 0.014
GRKIIIRKNKIK	0.613 ± 0.05
GRKKKINDDKKN	0.688 ± 0.071
GRLGCAVCGSRG	0.708 ± 0.041
GRLLRVSCHGVS	0.701 ± 0.019
GRNFSHKKRGKY	0.685 ± 0.03
GRPRPRSGWILL	0.672 ± 0.067
GRQLNDSISTLK	0.642 ± 0.015
GRQVTSTLTKLL	0.617 ± 0.18
GRRCKNMKKMSW	0.674 ± 0.046
GRRGRWCAGQWG	0.6743 ± 0.0062
GRRLGREWGDAP	0.721 ± 0.12
GRRNGLCENPRG	0.657 ± 0.0077
GRRPPWRFSFPF	0.769 ± 0.063
GRRRDREAVVPW	0.732 ± 0.032
GRRRGWAWGVWG	0.683 ± 0.0084

Sequence	protein stability index
GRRVPGPLRSSE	0.709 ± 0.085
GRSVSGYGSFID	0.686 ± 0.017
GRVAMAVSGGVG	0.638 ± 0.023
GRVGFGSGAWLR	0.669 ± 0.0021
GRVGGRAGGRGR	0.691 ± 0.039
GRVGGRSGGRGR	0.68 ± 0.013
GRVGSLCGWLWR	0.722 ± 0.02
GRVRARGRRGKG	0.625 ± 0.058
GRVRFVCVGLGG	0.639 ± 0.047
GRWRIVSLEELQ	0.724 ± 0.035
GRYLGARRGRAF	0.68 ± 0.078
GRYSECCSGGGG	0.674 ± 0.015
GSCGCLSVVSGR	0.713 ± 0.044
GSCGWCGVARWG	0.762 ± 0.05
GSERGGRSRGRG	0.665 ± 0.0059
GSFVEEVFRVKS	0.6646 ± 0.0061
GSGRNKGLWRIW	0.725 ± 0.04
GSGSVWQGLGSG	0.711 ± 0.032
GSGTPRTPCLSH	0.642 ± 0.04
GSLASRGVFVVV	0.614 ± 0.042
GSNRLYRGVTIT	0.627 ± 0.0082
GSNRTLSLYCVG	0.633 ± 0.016
GSPRFSNGCEYF	0.59 ± 0.026
GSREHYGLFLGH	0.673 ± 0.032
GSRSSDTGGRLM	0.6819 ± 0.00074

Sequence	protein stability index
GSRVGRATGRRR	0.709 ± 0.014
GSRWRISYQQVL	0.623 ± 0.037
GSSGRFFHVVVF	0.644 ± 0.074
GSSPCHNEESGT	0.693 ± 0.014
GSVGWRGGEGRW	0.59 ± 0.11
GSVLRCFFRKGS	0.6923 ± 0.0059
GSVYFDLLCVRP	0.729 ± 0.048
GSWIGGSVIGGQ	0.763 ± 0.073
GTASGGPKVSLF	0.656 ± 0.088
GTETKIRNKHVE	0.645 ± 0.059
GTGMMGFFWIVA	0.571 ± 0.069
GTKGEGGGKGGV	0.693 ± 0.038
GTLDTDAGTINH	0.683 ± 0.025
GTPNLTEEPPHQ	0.761 ± 0.034
GTPPRSGLPLCT	0.711 ± 0.0099
GTRAETQWSVGM	0.682 ± 0.013
GTRPSPPSRLVS	0.677 ± 0.031
GTVHQQGGPIDG	0.676 ± 0.033
GVAGRRRRAGAW	0.7294 ± 0.002
GVAVLAGWEVLG	0.653 ± 0.021
GVCGGGGGWGVA	0.6826 ± 0.0019
GVCSRVFLGRVE	0.6836 ± 0.0065
GVDKQSGTRNIK	0.704 ± 0.0068
